Measured values taken from EP1728802A2.

Assays:
[1] = target: ErbB3 expressed on 4E9H3 cells (K562 cells stably transfected with erbB3 cDNA) (UniProt P21860); experiment: Scatchard analysis of competitive 125I-HRG binding to 4E9H3 cells, in the presence of 100 nM 3-8D6 Fab
[2] = target: ErbB3 expressed on 4E9H3 cells (K562 cells stably transfected with erbB3 cDNA) (UniProt P21860); experiment: Scatchard analysis of competitive 125I-HRG binding to 4E9H3 cells, no antibody
[3] = target: ErbB3 expressed on 4E9H3 cells (K562 cells stably transfected with erbB3 cDNA) (UniProt P21860); experiment: Scatchard analysis of competitive 125I-HRG binding to 4E9H3 cells, in the presence of 100 nM 3-8D6 IgG

Chain of UniProt P21860 (P21860 20-1342 limits assumed): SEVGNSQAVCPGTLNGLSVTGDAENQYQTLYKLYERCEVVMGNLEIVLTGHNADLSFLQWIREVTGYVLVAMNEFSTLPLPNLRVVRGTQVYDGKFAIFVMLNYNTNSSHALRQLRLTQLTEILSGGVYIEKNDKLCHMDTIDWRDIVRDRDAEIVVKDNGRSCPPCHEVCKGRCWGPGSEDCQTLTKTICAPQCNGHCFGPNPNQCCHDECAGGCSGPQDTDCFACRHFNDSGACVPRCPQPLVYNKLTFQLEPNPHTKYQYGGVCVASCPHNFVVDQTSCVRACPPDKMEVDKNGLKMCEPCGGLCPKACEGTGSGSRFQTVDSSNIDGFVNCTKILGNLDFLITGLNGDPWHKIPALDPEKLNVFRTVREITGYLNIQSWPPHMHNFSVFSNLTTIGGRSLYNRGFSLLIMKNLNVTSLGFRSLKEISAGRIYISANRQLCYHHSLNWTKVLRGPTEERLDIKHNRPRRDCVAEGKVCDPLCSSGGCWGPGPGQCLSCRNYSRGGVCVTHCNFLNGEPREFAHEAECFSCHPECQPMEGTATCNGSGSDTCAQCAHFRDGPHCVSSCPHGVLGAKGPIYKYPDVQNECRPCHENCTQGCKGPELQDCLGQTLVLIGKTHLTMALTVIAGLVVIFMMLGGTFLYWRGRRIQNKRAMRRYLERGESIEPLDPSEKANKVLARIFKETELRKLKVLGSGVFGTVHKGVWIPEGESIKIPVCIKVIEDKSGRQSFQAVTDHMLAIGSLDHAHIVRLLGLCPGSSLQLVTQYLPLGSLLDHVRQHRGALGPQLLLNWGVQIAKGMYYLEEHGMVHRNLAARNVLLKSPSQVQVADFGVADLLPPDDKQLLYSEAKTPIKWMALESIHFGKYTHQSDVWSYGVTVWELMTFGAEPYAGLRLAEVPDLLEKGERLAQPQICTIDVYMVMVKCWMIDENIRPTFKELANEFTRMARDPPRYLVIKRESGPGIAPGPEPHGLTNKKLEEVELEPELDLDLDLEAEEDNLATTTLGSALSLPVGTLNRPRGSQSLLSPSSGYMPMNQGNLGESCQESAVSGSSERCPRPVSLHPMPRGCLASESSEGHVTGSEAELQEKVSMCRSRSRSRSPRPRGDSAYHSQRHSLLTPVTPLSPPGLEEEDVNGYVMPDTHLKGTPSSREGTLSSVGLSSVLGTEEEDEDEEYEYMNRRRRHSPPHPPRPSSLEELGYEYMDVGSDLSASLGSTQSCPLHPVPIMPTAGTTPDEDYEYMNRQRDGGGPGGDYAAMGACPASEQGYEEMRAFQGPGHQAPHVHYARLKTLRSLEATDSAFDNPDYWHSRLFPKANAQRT

Substance: HRGβ1(177-244), EGF-like domain of the β1 isoform of heregulin (from UniProt Q02297 177-244) (ligand)
- Kd [1]: 280 pM
- Sites/Cell [1]: 290000 sites/cell
- Kd [2]: 1200 pM
- Sites/Cell [2]: 360000 sites/cell
- Kd [3]: 210 pM
- Sites/Cell [3]: 240000 sites/cell
